Measurements published in patent US20220372138A1 (IOMX THERAPEUTICS, published 2022).
Numbering of substitutions follows the chain as printed.

T1: ECD of murine IGSF11, recombinant biotinylated (mouse, UniProt P0C673 23-240)
T1 construct: whole entry named; also called Mouse IGSF11
T1 sequence: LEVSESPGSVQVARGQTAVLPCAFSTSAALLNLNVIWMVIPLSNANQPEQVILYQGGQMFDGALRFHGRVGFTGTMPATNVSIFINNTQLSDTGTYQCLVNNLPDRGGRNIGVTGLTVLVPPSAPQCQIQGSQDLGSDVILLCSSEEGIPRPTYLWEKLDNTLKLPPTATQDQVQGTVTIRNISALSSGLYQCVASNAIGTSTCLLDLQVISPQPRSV

T2: full-length ECD of human IGSF11 fused to murine Fc (human, UniProt Q5DX21 23-241)
T2 construct: also called Fc-fusion IGSF11 ECD; not shown: murine Fc
T2 sequence: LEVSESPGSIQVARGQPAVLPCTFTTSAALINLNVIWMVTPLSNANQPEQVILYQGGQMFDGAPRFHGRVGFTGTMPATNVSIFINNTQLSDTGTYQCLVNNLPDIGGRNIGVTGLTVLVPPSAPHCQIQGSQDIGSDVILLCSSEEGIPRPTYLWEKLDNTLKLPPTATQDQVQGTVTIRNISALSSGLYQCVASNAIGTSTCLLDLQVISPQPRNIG

T3: IgC2 domain of human IGSF11 fused to murine IgG2a Fc (human, UniProt Q5DX21 137-241)
T3 construct: not shown: murine IgG2a Fc-region
T3 sequence: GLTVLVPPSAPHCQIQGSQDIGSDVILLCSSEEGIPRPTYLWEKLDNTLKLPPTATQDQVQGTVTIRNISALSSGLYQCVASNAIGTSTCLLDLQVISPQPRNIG

T4: extracellular domain (ECD) of human IGSF11 (VSIG3), recombinant (human, UniProt Q5DX21 23-241)
T4 construct: biotinylated where captured on streptavidin; tags of the reagent not always stated; also called IGSF11 (ECD domain); ECD-IGSF11
T4 sequence: T2 sequence

B1: C-016 (Fab format) (Fab, V domains shown)
VH: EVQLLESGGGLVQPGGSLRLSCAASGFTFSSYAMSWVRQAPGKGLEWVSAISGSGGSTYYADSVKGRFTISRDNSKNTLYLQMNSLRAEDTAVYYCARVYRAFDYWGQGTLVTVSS
VL: ASVLTQPPSVSAAPGQKVTISCSGSSSNIGNNYVSWYQQLPGTAPKLLIYDNNKRPSGIPDRFSGSKSGTSATLGITGLQAEDEADYYCHLYTEAESHWVFGGGTKLTVL
notes: Fab from E. coli lysate
B2: C-002 (Fab format) (Fab, V domains shown)
VH: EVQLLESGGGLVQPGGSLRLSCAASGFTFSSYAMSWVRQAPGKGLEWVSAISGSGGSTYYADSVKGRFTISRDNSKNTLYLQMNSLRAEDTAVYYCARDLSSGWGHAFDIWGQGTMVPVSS
VL: B1 VL with H90L, L91S, E94T, A95S, S97H, W99L
notes: Fab from E. coli lysate
B3: C-021 (Fab format) (Fab, V domains shown)
VH: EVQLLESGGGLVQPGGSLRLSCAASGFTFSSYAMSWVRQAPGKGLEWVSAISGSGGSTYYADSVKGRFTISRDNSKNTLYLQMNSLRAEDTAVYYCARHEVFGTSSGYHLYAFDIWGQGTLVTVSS
VL: DIQMTQSPSSLSASVGDRVTITCRASQSISSYLNWYQQKPGKAPKLLIYAASSLQSGVPSRFSGSGSGTDFTLTISSLQPEDFATYYCQQWSGLPLTFGQGTKVEIK
notes: Fab from E. coli lysate
B4: C-015 (Fab format) (Fab, V domains shown)
VH: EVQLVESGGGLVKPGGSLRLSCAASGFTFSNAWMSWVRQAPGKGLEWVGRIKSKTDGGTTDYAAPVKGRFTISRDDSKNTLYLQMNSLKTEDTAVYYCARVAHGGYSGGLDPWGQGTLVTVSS
VL: SYELTQPPSVSVSPGQTASITCSGDKLGDKYASWYQQKPGQSPVLVIYQDSKRPSGIPERFSGSNSGNTATLTISGTQAEDEADYYCSSTGTAHTLAVFGGGTKLTVL
notes: Fab from E. coli lysate
B5: C-023 (Fab format) (Fab, V domains shown)
VH: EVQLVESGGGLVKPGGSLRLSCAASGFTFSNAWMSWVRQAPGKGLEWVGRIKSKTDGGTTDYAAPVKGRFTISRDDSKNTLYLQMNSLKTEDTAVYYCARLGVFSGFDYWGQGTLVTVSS
VL: B4 VL with S88H, S89T, T90W, G91T, T92H, A93H, H94S, T95L, L96A, A97V
notes: Fab from E. coli lysate
B6: C-017 (Fab format) (Fab, V domains shown)
VH: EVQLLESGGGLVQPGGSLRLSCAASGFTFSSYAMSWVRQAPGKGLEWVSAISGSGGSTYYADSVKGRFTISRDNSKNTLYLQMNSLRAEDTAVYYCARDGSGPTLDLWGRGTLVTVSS
VL: DIQMTQSPSSLSASVGDRVTITCRASQSISSYLNWYQQKPGKAPKLLIYAASSLQSGVPSRFSGSGSGTDFTLTISSLQPEDFATYYCQQHRYIPPWTFGQGTKVEIK
notes: Fab from E. coli lysate
B7: C-020 (Fab format) (Fab, V domains shown)
VH: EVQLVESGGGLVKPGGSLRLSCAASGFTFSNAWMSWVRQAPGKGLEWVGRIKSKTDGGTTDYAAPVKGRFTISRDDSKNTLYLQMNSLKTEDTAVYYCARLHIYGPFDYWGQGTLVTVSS
VL: B4 VL with S88L, T90Y, G91L, T92A, A93R, H94S, T95G, L96S, A97V
notes: Fab from E. coli lysate
B8: C-024 (Fab format) (Fab, V domains shown)
VH: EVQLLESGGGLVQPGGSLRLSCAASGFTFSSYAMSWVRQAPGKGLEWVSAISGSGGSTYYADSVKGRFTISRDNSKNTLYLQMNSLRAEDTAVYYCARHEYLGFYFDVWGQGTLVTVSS
VL: B4 VL with S88L, S89A, T90S, G91H, T92R, A93L, H94T, T95L, L96N, A97Y
notes: Fab from E. coli lysate
B9: C-011 (IgG1 format) (antibody, V domains shown)
VH: QVQLVQSGAEVKKPGSSVKVSCKASGGTFSSYAISWVRQAPGQGLEWMGGIIPIFGTANYAQKFQGRVTITADESTSTAYMELSSLRSEDTAVYYCARHSTPSFLQYWGQGTLVTVSS
VL: SYELTQPPSVSVSPGQTASITCSGDKLGDKYASWYQQKPGQSPVLVIYQDSKRPSGIPERFSGSNSGNTATLTISGTQAEDEADYYCAVYPAHASARWVFGGGTKLTVL
B10: C-022 (IgG1 format) (antibody, V domains shown)
VH: EVQLLESGGGLVQPGGSLRLSCAASGFTFSSYAMSWVRQAPGKGLEWVSAISGSGGSTYYADSVKGRFTISRDNSKNTLYLQMNSLRAEDTAAYYCARMAAGASWGTFDYWSQGTLVTVSS
VL: B3 VL with W91R, L94S
B11: C-018 (IgG1 format) (antibody, V domains shown)
VH: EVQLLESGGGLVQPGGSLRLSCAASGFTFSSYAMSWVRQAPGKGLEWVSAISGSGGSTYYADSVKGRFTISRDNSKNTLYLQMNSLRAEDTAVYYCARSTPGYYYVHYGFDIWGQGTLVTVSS
VL: B4 VL with S88Q, S89A, T90W, G91S, A93S, H94T, T95H, L96S, A97W
B12: C-015 (IgG1 format) (antibody, V domains shown)
VH: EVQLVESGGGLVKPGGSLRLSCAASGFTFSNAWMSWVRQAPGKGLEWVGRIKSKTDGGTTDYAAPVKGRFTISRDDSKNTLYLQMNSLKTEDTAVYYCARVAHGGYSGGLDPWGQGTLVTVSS
VL: B4 VL
B13: A-031 (scFv format) (scFv, V domains shown)
VH: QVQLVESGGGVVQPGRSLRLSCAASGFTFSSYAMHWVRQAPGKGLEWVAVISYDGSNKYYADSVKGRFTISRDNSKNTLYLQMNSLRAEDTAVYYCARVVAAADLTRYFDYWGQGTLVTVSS
VL: EIVLTQSPGTVSLSPGERATLSCRASQSVPKNYLAWFQQKPGQAPRLVIHTASSRAPGIPDRFTGSGSGTDFTLTISRLEPEDFAVYYCQQYGTSPNTFGQGTKLDIK
notes: scFv
B14: A-025 (scFv format) (scFv, V domains shown)
VH: QVQLVQSGAEVKKPGSSVKVSCKASGGTFSSYAISWVRQAPGQGLEWMGGIIPIFGTANYAQKFQGRVTITADESTSTAYMELTSLRSEDTAVYYCARGGWLRQNWFDPWGQGTLVTVSS
VL: SSELTQDPAVSVALGQTVRITCQGDSLRSYYASWYQQKPGQAPVLVIYGKNNRPSGIPDRFSGSSSGNTASLTITGAQAEDEADYYCNSRDSSGNHPRVFGGGTKLTVL
notes: scFv
B15: A-029 (scFv format) (scFv, V domains shown)
VH: QVQLVQSGAEVKKPGSSVKVSCKASGGTFSSYAISWVRQAPGQGLEWMGGIIPIFGTANYAQKFQGRVTITADESTGTAYMELSSLRSEDTAVYYCARSYYYYYGMDVWGQGTTVTVSS
VL: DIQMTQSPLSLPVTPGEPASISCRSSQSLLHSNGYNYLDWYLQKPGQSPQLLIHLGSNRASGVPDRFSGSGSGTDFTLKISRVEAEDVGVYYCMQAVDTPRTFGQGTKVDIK
notes: scFv
B16: A-027 (scFv format) (scFv, V domains shown)
VH: QVQLVQSGAEVKKPGSSVKVSCKASGGTFSSYAISWVRQAPGQGLEWMGGIIPIFGTANYAQKFQGRVTITADKSTSTAYMELSSLRSEDTAVYYCARARGSTWGYFDYWGQGTLVTVSS
VL: EIVLTQSPASLSLSPGERVTLSCRASQSVSNYLAWYQQKPGQAPRLLIYDASNRATGIPARFSGSGSGTDFTLTISSLEPEDFAVYYCQQRDNWPLTFGGGTKVEIK
notes: scFv
B17: A-003 (scFv format) (scFv, V domains shown)
VH: VQLVQSGAEVKKPGSSVKVSCKASGGTFSSYAISWVRQAPGQGLEWMGGIIPIFGTANYAQKFQGRVTITADESTSTAYMELSSLRSEDTAVYYCASPRIQLWAAGGFDYWGQGTLVTVSS
VL: QSALTQPASVSGSPGQSITISCTGTSSDVGGYNLVSWYQQHPGKAPKLMIYDVSNRPSGVSNRFSGSKSGNTASLTISGLQAEDEADYYCSSFTTSTTLVFGGGTKLTVL
notes: scFv
B18: A-032 (scFv format) (scFv, V domains shown)
VH: QVQLVQSGAEVKKPGASVKVSCKASGYTFTGYYMHWVRQAPGQGLEWMGWMNPNSGNTGYAQKFQGRVTMTRNTSISTAYMELSSLRSEDTAVYYCARGGQQQLVLDDYWGQGTLVTVSS
VL: not shown
B19: A-037 (scFv format) (scFv, V domains shown)
VH: B18 VH with M51I
VL: NFMLTQPHSVSESPGKTVTISCTGSSGSIASNYVQWYQQRPGSAPTTVIYEDNQRPSGVPDRFSGSIDSSSNSASLTISGLKTEDEADYYCQSYDSSNQRVFGGGTKLTVL
notes: scFv
B20: A-030 (scFv format) (scFv, V domains shown)
VH: B18 VH with M51I
VL: DIQLTQSPSTLSASVGDRVTITCRASQSIGGWLAWYQHKPGKAPKLLIYAASSLQSGVPSRFSGSGSGTDFTLTISSLQPEDFATYYCRQSYSTPPTFGQGTKVEIK
notes: scFv
B21: A-036 (scFv format) (scFv, V domains shown)
VH: B18 VH with M51I, N57G, G59N
VL: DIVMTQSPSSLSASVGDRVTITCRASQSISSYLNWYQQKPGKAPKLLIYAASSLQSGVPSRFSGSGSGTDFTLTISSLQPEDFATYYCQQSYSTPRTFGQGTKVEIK
notes: scFv
B22: A-033 (scFv format) (scFv, V domains shown)
VH: QVQLVQSGAEVKKPGASVKVSCKASGYTFTSYGISWVRQAPGQGLEWMGWISAYNGNTNYAQKLQGRVTMTTDTSTSTAYMELRSLRSDDTAVYYCARDHSIVGATTFDYWGQGTLVTVSS
VL: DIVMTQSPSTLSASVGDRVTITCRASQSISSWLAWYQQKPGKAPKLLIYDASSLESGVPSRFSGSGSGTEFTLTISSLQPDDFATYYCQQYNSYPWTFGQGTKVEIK
notes: scFv
B23: A-028 (scFv format) (scFv, V domains shown)
VH: QVQLVQSGAEVKKPGSSVKVSCKASGGTFSSYAISWVRQAPGQGLEWMGGIIPIFGTANYAQKFQGRVTITADESTSTAYMELSSLRSEDTAVYYCARVGVEYQLLWYFDYWGQGTLVTVSS
VL: DIQMTQSPSSLSASVGDRVTLTCRTSQTISNYLNWYQQKPGKAPKLLVYAASNLQSWVPSRFSGSGSGTDFTLTISSLQPEDFATYYCQQSYNASFGGGTKVEFK
notes: scFv

These binders were tested against Streptavidin (UniProt P22629 37-163, limits assumed) (assay: Fab ELISA).
Sequence of Streptavidin (P22629 37-163 limits assumed): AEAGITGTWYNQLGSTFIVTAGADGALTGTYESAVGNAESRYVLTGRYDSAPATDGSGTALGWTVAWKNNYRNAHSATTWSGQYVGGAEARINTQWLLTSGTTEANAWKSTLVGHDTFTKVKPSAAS
Description: (§1) In order to identify IGSF11-specific binding ABPs, monoclonal Fabs expressed from E. coli were generated from the enriched set of anti-IGFS11 antibody-expressing phage. After bacterial lysis, the Fabs were tested for their binding properties and cross-reactivity profile on recombinant ECD-IGSF11 (human, mouse and cynomolgus monkey) by standard ELISA. Briefly, biotinylated recombinant ECD-IGSF11 from human, mouse, or cynomolgus monkey were immobilized at 2 ug/mL on a streptavidin-coated 384-well Maxisorp plate. The surface was blocked with 2% (w/v) skim milk powder in PBST. After three wash cycles with PBST, a bacterial lysate of each of the anti-IGSF11 Fabs in 2% (w/v) skim milk powder was applied to the immobilized IGSF11 and incubated for 1 h. After removing all unbound Fab by 3 wash cycles with PBST, bound Fab antibodies were detected with a goat anti-human Fab antibody conjugated with horseradish peroxidase. After three wash cycles with PBST the ELISA was developed with TMB substrate.
In the case of B1, the A450 is reported as under 0.1. B2 gave an A450 of under 0.1. For B3, the A450 was under 0.1. B4 gave an A450 of under 0.1. In the case of B5, the A450 is reported as under 0.1.

These binders were tested against T1, ECD of murine IGSF11, recombinant … (assay: Fab ELISA).
Description: as §1
With B1 the A450 was under 1. B2 showed an A450 of under 1. B6 showed an A450 of under 1. B3 was tested, and the A450 was under 1. For B7, the A450 was under 1. B4 gave an A450 of under 1. B8 gave an A450 of under 1. In the case of B5, the A450 is reported as under 1.

Each binder was assayed against T2, full-length ECD of human IGSF11 fused … (assay: IgG ELISA;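 also: ELISA binding of IgG antibodies to plate-coated IGSF11 Fc-fusion proteins (full-length ECD, IgV or IgC2 domain), detected via HRP-labelled anti-human IgG with TMB development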).
Binder B9 has an EC50 of under 1 nM. With B10 the EC50 was 1 to 20 nM. In the case of B11, the EC50 is reported as 1 to 20 nM. For B12, the EC50 was 20 to 100 nM.

These binders were tested against T3, IgC2 domain of human IGSF11 fused to … (assay: IgG ELISA;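 also: ELISA binding of IgG antibodies to plate-coated IGSF11 Fc-fusion proteins (full-length ECD, IgV or IgC2 domain), detected via HRP-labelled anti-human IgG with TMB development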).
B9 showed an EC50 of under 1 nM. With B10 the EC50 was 1 to 20 nM. B11 showed an EC50 of under 1 nM. B12 gave an EC50 of 1 to 20 nM.

These binders were tested against T1, ECD of murine IGSF11, recombinant … (assay: ELISA RFU 0.1-0.5).
B13 was tested, and the “ELISA binding signal (RFU)” value was 0.1 to 0.5 rfu. For B14, the “ELISA binding signal (RFU)” value was 0.1 to 0.5 rfu. For B15, the “ELISA binding signal (RFU)” value was 0.1 to 0.5 rfu. With B16 the “ELISA binding signal (RFU)” value was 0.1 to 0.5 rfu. B17 was tested, and the “ELISA binding signal (RFU)” value was 0.1 to 0.5 rfu. With B18 the “ELISA binding signal (RFU)” value was 0.1 to 0.5 rfu. For B19, the “ELISA binding signal (RFU)” value was 0.1 to 0.5 rfu. B20 was tested, and the “ELISA binding signal (RFU)” value was 0.1 to 0.5 rfu. With B21 the “ELISA binding signal (RFU)” value was 0.1 to 0.5 rfu. In the case of B22, the “ELISA binding signal (RFU)” value is reported as 0.1 to 0.5 rfu. For B23, the “ELISA binding signal (RFU)” value was 0.1 to 0.5 rfu.

What follows are binders tested against T4, extracellular domain (ECD) of human … (assay: ELISA RFU 0.1-0.5).
For B13, the “ELISA binding signal (RFU)” value was 0.1 to 0.5 rfu. With B14 the “ELISA binding signal (RFU)” value was 0.1 to 0.5 rfu. In the case of B15, the “ELISA binding signal (RFU)” value is reported as 0.1 to 0.5 rfu. In the case of B16, the “ELISA binding signal (RFU)” value is reported as 0.1 to 0.5 rfu. B17 was tested, and the “ELISA binding signal (RFU)” value was 0.1 to 0.5 rfu. B18 was tested, and the “ELISA binding signal (RFU)” value was 0.1 to 0.5 rfu. B19 was tested, and the “ELISA binding signal (RFU)” value was 0.1 to 0.5 rfu. With B20 the “ELISA binding signal (RFU)” value was 0.1 to 0.5 rfu. For B21, the “ELISA binding signal (RFU)” value was 0.1 to 0.5 rfu. For B22, the “ELISA binding signal (RFU)” value was 0.1 to 0.5 rfu. With B23 the “ELISA binding signal (RFU)” value was 0.1 to 0.5 rfu.
